# Laboratory results as given in patent publication US20240343814A1.
# How the values were obtained:
# [1] = target: Recombinant human his-tagged IGF 1R extracellular domain protein (human) (UniProt P08069); assay: SPR, captured IgG, IGF-1R ECD-his analyte, dissociation pH 6
# [2] = target: Recombinant human his-tagged IGF 1R extracellular domain protein (human) (UniProt P08069); assay: SPR, captured IgG, IGF-1R ECD-his analyte, dissociation pH 6; dissociation at pH 6
# [3] = target: Recombinant human his-tagged IGF 1R extracellular domain protein (human) (UniProt P08069); assay: SPR, captured IgG, IGF-1R ECD-his analyte, dissociation pH 7.4
# [4] = target: Recombinant human his-tagged IGF 1R extracellular domain protein (human) (UniProt P08069); assay: SPR, captured IgG, IGF-1R ECD-his analyte, dissociation pH 7.4; dissociation at pH 7.4
Binder,Kd [1],kon [1],koff [2],Kd [3],koff [3],kon [3],koff [1],koff [4]
"VRDN-02511 (antibody, V domains shown) VH: EVQLVQSGGGLVKPGGSLRLSCAASGFTFSSFAMHWVRQAPGKGLEWISVIDHRGATYYADSVKGRFTISRDNAKNSLYLQMNSLRAEDTAVYYCARLGNFYYGMDVWGQGTTVTVSS VL: EIVLTQSPGTLSVSPGERATLSCRASQSIGSSLHWYQQKPGQAPRLLIKYASQSLSGIPDRFSGSGSGTDFTLTISRLEPEDFAVYYCHQSSRLPHTFGQGTKVEIK",4.28 nM,157000 M⁻¹ s⁻¹,–,41.6 nM,0.0319 s⁻¹,766000 M⁻¹ s⁻¹,0.000672 s⁻¹,–
"VRDN-02512 (antibody, V domains shown) VH: EVQLVQSGGGLVKPGGSLRLSCAASGFTFSSFAMHWVRQAPGKGLEWISVIDTHGATYYADSVKGRFTISRDNAKNSLYLQMNSLRAEDTAVYYCARLGNFYYGMDVWGQGTTVTVSS VL: EIVLTQSPGTLSVSPGERATLSCRASQSIGSSLHWYQQKPGQAPRLLIKYASQSLSGIPDRFSGSGSGTDFTLTISRLEPEDFAVYYCHQSSRLPHTFGQGTKVEIK",1.2 nM,32900 M⁻¹ s⁻¹,–,6.08 nM,0.000271 s⁻¹,44600 M⁻¹ s⁻¹,3.96e-05 s⁻¹,–
"VRDN-02567 (antibody, V domains shown) VH: EVQLVQSGGGLVKPGGSLRLSCAASGFTFSSFAMHWVRQAPGKGLEWISVIDTRGATYYADSVKGRFTISRDNAKNSLYLQMNSLRAEDTAVYYCARLGNFYYHHDVWGQGTTVTVSS VL: EIVLTQSPGTLSVSPGERATLSCRASQSIGSSLHWYQQKPGQAPRLLIKYASQSLSGIPDRFSGSGSGTDFTLTISRLEPEDFAVYYCHQSSRLPHTFGQGTKVEIK",5.41 nM,105000 M⁻¹ s⁻¹,–,2.77 nM,0.000473 s⁻¹,171000 M⁻¹ s⁻¹,0.000569 s⁻¹,–
"VRDN-02565 (antibody, V domains shown) VH: EVQLVQSGGGLVKPGGSLRLSCAASGFTFSSFAMHWVRQAPGKGLEWISVIDTRGATYYADSVKGRFTISRDNAKNSLYLQMNSLRAEDTAVYYCHRLGNFYYHMDVWGQGTTVTVSS VL: EIVLTQSPGTLSVSPGERATLSCRASQSIGSSLHWYQQKPGQAPRLLIKYASQSLSGIPDRFSGSGSGTDFTLTISRLEPEDFAVYYCHQSSRLPHTFGQGTKVEIK",5.77 nM,3.43e+06 M⁻¹ s⁻¹,–,9.12 nM,0.0243 s⁻¹,2.66e+06 M⁻¹ s⁻¹,0.0198 s⁻¹,–
"VRDN-02566 (antibody, V domains shown) VH: EVQLVQSGGGLVKPGGSLRLSCAASGFTFSSFAMHWVRQAPGKGLEWISVIDTRGATYYADSVKGRFTISRDNAKNSLYLQMNSLRAEDTAVYYCHRLGNFYYGHDVWGQGTTVTVSS VL: EIVLTQSPGTLSVSPGERATLSCRASQSIGSSLHWYQQKPGQAPRLLIKYASQSLSGIPDRFSGSGSGTDFTLTISRLEPEDFAVYYCHQSSRLPHTFGQGTKVEIK",3 nM,2.95e+06 M⁻¹ s⁻¹,–,17.4 nM,0.0197 s⁻¹,1.14e+06 M⁻¹ s⁻¹,0.00885 s⁻¹,–
"VRDN-02508 (antibody, V domains shown) VH: EVQLVQSGGGLVKPGGSLRLSCAASGFTFSSFHMHWVRQAPGKGLEWISVIDTRGATYYADSVKGRFTISRDNAKNSLYLQMNSLRAEDTAVYYCARLGNFYYGMDVWGQGTTVTVSS VL: EIVLTQSPGTLSVSPGERATLSCRASQSIGSSLHWYQQKPGQAPRLLIKYASQSLSGIPDRFSGSGSGTDFTLTISRLEPEDFAVYYCHQSSRLPHTFGQGTKVEIK",3.9 nM,53100 M⁻¹ s⁻¹,–,0.00515 nM,1e-06 s⁻¹,194000 M⁻¹ s⁻¹,0.000207 s⁻¹,–
"VRDN-02510 (antibody, V domains shown) VH: EVQLVQSGGGLVKPGGSLRLSCAASGFTFSSFAMHWVRQAPGKGLEWISVIHTRGATYYADSVKGRFTISRDNAKNSLYLQMNSLRAEDTAVYYCARLGNFYYGMDVWGQGTTVTVSS VL: EIVLTQSPGTLSVSPGERATLSCRASQSIGSSLHWYQQKPGQAPRLLIKYASQSLSGIPDRFSGSGSGTDFTLTISRLEPEDFAVYYCHQSSRLPHTFGQGTKVEIK",3.84 nM,30200 M⁻¹ s⁻¹,–,0.214 nM,5.3e-05 s⁻¹,248000 M⁻¹ s⁻¹,0.000116 s⁻¹,–
"VRDN-02515 (antibody, V domains shown) VH: EVQLVQSGGGLVKPGGSLRLSCAASGFTFSSFAMHWVRQAPGKGLEWISVIDTRGAHYYADSVKGRFTISRDNAKNSLYLQMNSLRAEDTAVYYCARLGNFYYGMDVWGQGTTVTVSS VL: EIVLTQSPGTLSVSPGERATLSCRASQSIGSSLHWYQQKPGQAPRLLIKYASQSLSGIPDRFSGSGSGTDFTLTISRLEPEDFAVYYCHQSSRLPHTFGQGTKVEIK",0.692 nM,100000 M⁻¹ s⁻¹,–,0.571 nM,5.82e-05 s⁻¹,102000 M⁻¹ s⁻¹,6.92e-05 s⁻¹,–
"VRDN-02507 (antibody, V domains shown) VH: EVQLVQSGGGLVKPGGSLRLSCAASGFTFSSHAMHWVRQAPGKGLEWISVIDTRGATYYADSVKGRFTISRDNAKNSLYLQMNSLRAEDTAVYYCARLGNFYYGMDVWGQGTTVTVSS VL: EIVLTQSPGTLSVSPGERATLSCRASQSIGSSLHWYQQKPGQAPRLLIKYASQSLSGIPDRFSGSGSGTDFTLTISRLEPEDFAVYYCHQSSRLPHTFGQGTKVEIK",0.0469 nM,21300 M⁻¹ s⁻¹,–,0.1 nM,1.99e-05 s⁻¹,199000 M⁻¹ s⁻¹,1e-06 s⁻¹,–

# These reach a lower Kd [1]. Values come first.
Kd [1],kon [1],koff [2],Kd [3],koff [3],kon [3],koff [1],koff [4],Binder
< 0.0161 nM,47500 M⁻¹ s⁻¹,< 1e-06 s⁻¹,0.626 nM,3.89e-05 s⁻¹,62100 M⁻¹ s⁻¹,–,–,"VRDN-02500 (antibody, human IgG1, kappa, V domains shown) VH: EVQLVQSGGGLVKPGGSLRLSCAASGFTFSSFAMHWVRQAPGKGLEWISVIDTRGATYYADSVKGRFTISRDNAKNSLYLQMNSLRAEDTAVYYCARLGNFYYGMDVWGQGTTVTVSS VL: EIVLTQSPGTLSVSPGERATLSCRASQSIGSSLHWYQQKPGQAPRLLIKYASQSLSGIPDRFSGSGSGTDFTLTISRLEPEDFAVYYCHQSSRLPHTFGQGTKVEIKR"
0.0267 nM,37400 M⁻¹ s⁻¹,–,0.0143 nM,1e-06 s⁻¹,69900 M⁻¹ s⁻¹,1e-06 s⁻¹,–,"VRDN-02506 (antibody, V domains shown) VH: EVQLVQSGGGLVKPGGSLRLSCAASGFTFSHFAMHWVRQAPGKGLEWISVIDTRGATYYADSVKGRFTISRDNAKNSLYLQMNSLRAEDTAVYYCARLGNFYYGMDVWGQGTTVTVSS VL: EIVLTQSPGTLSVSPGERATLSCRASQSIGSSLHWYQQKPGQAPRLLIKYASQSLSGIPDRFSGSGSGTDFTLTISRLEPEDFAVYYCHQSSRLPHTFGQGTKVEIK"
0.0322 nM,31100 M⁻¹ s⁻¹,–,1.06 nM,5.09e-05 s⁻¹,48200 M⁻¹ s⁻¹,1e-06 s⁻¹,–,"VRDN-02513 (antibody, V domains shown) VH: EVQLVQSGGGLVKPGGSLRLSCAASGFTFSSFAMHWVRQAPGKGLEWISVIDTRHATYYADSVKGRFTISRDNAKNSLYLQMNSLRAEDTAVYYCARLGNFYYGMDVWGQGTTVTVSS VL: EIVLTQSPGTLSVSPGERATLSCRASQSIGSSLHWYQQKPGQAPRLLIKYASQSLSGIPDRFSGSGSGTDFTLTISRLEPEDFAVYYCHQSSRLPHTFGQGTKVEIK"
0.0285 nM,35100 M⁻¹ s⁻¹,–,0.285 nM,4.81e-05 s⁻¹,169000 M⁻¹ s⁻¹,1e-06 s⁻¹,–,"VRDN-02509 (antibody, V domains shown) VH: EVQLVQSGGGLVKPGGSLRLSCAASGFTFSSFAHHWVRQAPGKGLEWISVIDTRGATYYADSVKGRFTISRDNAKNSLYLQMNSLRAEDTAVYYCARLGNFYYGMDVWGQGTTVTVSS VL: EIVLTQSPGTLSVSPGERATLSCRASQSIGSSLHWYQQKPGQAPRLLIKYASQSLSGIPDRFSGSGSGTDFTLTISRLEPEDFAVYYCHQSSRLPHTFGQGTKVEIK"
< 0.0273 nM,36600 M⁻¹ s⁻¹,< 1e-06 s⁻¹,0.00543 nM,1e-06 s⁻¹,184000 M⁻¹ s⁻¹,–,–,"VRDN-02526 (antibody, V domains shown) VH: EVQLVQSGGGLVKPGGSLRLSCAASGFTFSSFAMHWVRQAPGKGLEWISVIDTRGATYYADSVKGRFTISRDNAKNSLYLQMNSLRAEDTAVYYCARLGNFYYGMHVWGQGTTVTVSS VL: EIVLTQSPGTLSVSPGERATLSCRASQSIGSSLHWYQQKPGQAPRLLIKYASQSLSGIPDRFSGSGSGTDFTLTISRLEPEDFAVYYCHQSSRLPHTFGQGTKVEIK"
0.0283 nM,35300 M⁻¹ s⁻¹,–,< 0.00926 nM,–,108000 M⁻¹ s⁻¹,1e-06 s⁻¹,< 1e-06 s⁻¹,"VRDN-02514 (antibody, V domains shown) VH: EVQLVQSGGGLVKPGGSLRLSCAASGFTFSSFAMHWVRQAPGKGLEWISVIDTRGHTYYADSVKGRFTISRDNAKNSLYLQMNSLRAEDTAVYYCARLGNFYYGMDVWGQGTTVTVSS VL: EIVLTQSPGTLSVSPGERATLSCRASQSIGSSLHWYQQKPGQAPRLLIKYASQSLSGIPDRFSGSGSGTDFTLTISRLEPEDFAVYYCHQSSRLPHTFGQGTKVEIK"
